Literature values, collected in article PMC6189303.

Target: L1-CAM (UniProt P32004)
Chain of UniProt P32004 (P32004 20-1120): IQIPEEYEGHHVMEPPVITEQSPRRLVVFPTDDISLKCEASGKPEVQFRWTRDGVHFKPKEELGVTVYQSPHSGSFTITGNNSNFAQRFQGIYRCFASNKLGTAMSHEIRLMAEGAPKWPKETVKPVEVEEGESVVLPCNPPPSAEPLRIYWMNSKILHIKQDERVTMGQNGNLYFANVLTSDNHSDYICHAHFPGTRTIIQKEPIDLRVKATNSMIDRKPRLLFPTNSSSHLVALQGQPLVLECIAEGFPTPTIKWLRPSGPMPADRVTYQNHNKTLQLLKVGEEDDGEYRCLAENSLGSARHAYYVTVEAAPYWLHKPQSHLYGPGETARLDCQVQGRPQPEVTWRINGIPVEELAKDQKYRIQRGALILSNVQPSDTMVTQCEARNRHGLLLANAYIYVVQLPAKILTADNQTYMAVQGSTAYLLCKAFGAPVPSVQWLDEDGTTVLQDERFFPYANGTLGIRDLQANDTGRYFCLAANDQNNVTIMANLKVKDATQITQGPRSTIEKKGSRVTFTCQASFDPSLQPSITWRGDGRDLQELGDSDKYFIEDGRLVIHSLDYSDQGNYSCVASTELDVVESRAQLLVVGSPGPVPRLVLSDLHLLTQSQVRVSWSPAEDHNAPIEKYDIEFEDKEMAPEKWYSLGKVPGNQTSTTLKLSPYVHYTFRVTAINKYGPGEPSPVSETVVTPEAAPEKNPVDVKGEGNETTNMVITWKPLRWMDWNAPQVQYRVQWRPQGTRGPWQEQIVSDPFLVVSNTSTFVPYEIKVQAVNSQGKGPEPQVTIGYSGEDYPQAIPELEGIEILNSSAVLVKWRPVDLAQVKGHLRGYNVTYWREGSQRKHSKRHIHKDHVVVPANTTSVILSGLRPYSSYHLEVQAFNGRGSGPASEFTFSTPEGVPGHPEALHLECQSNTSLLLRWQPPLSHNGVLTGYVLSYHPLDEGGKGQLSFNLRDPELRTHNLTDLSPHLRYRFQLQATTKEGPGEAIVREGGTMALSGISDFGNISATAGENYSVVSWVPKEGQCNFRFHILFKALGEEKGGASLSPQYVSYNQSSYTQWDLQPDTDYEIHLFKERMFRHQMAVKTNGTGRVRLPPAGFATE

Kd: 1 nM
Substance: Neurocan (from UniProt O14594)
